According to paper PMC7840982, “Purification of Crimean–Congo hemorrhagic fever virus nucleoprotein and its utility for serological diagnosis” (Scientific Reports, 2021):

Molecular target: the molecule itself
Experiment: negative-stain transmission electron microscopy

B1: Crimean–Congo hemorrhagic fever virus nucleoprotein (strain IbAr10200), recombinant, untagged (natural protein)
chain: MENKIEVNNKDEMNRWFEEFKKGNGLVDTFTNSYSFCESVPNLDRFVFQMASATDDAQKDSIYASALVEATKFCAPIYECAWVSSTGIVKKGLEWFEKNAGTIKSWDESYTELKVDVPKIEQLTGYQQAALKWRKDIGFRVNANTAALSNKVLAEYKVPGEIVMSVKEMLSDMIRRRNLILNRGGDENPRGPVSHEHVDWCREFVKGKYIMAFNPPWGDINKSGRSGIALVATGLAKLAETEGKGIFDEAKKTVEALNGYLDKHKDEVDRASADSMITNLLKHIAKAQELYKNSSALRAQSAQIDTAFSSYYWLYKAGVTPETFPTVSQFLFELGKQPRGTKKMKKALLSTPMKWGKKLYELFADDSFQQNRIYMHPAVLTAGRISEMGVCFGTIPVANPDDAAQGSGHTKSILNLRTNTETNNPCAKTIVKLFEVQKTGFNIQDMDIVASEHLLHQSLVGKQSPFQNAYNVKGNATSANII
notes: also called CCHFV NP; NP
binding result: binds
